Residue numbers refer to the chain shown, from its start.

Here are results for 19 molecules from patent publication US9371374.

The labels stand for the following.
B1: HCV 208A-1064 (antibody, V domains shown)
VH: EVQLQQSGPELVKPGASVKISCKTSGYTFTEYAMHWMKQSHGKSLEWIGGINPTNGDTIYNQKFKDKAKLTVDRSSSTAYMELRSLTSDDSALFYCARRELDYFASWGQGTTLTVSS
VL: DIVLTQSPASLIVSLGQTATISCRASQSVSTSRFSYLHWIQQKPGQPPKLLIKYASNLESGVPVRFSGSGSGTDFTLNIHPVEEEDTATYFCQHSWEFPFTFGSGTKLKIKR
B2: HCV 208A-293 (antibody, V domains shown)
VH: B1 VH with T24A, Y27F, T58A, A105P
VL: B1 VL with T18R, L37V, T76I, K109E
B3: HCV 208A-830 (antibody, V domains shown)
VH: EVRLQQPGPEVEKPGASVKISCKTSGYTFTEYAIHWVKQSHGESLEWIGGINPSNGDPIYNQIFKDKATLTVDRSSNTAYMGLRSLTVGDSGVYFCVRRQLDYFDFWGQGASLTVSS
VL: B1 VL with I12A, T18R, A25S, F34Y, I40Y, V64A, E83G, T87P, F91Y, K109E
B4: HCV 208A-605 (antibody, V domains shown)
VH: B3 VH with R3Q, P7S, V11L, E43M, D57N, P58A, N77S, V88F, Y103F, F106Y
VL: B1 VL with L4V, I12A, T18R, F34Y, I40Y, V64A, E83G, F91Y, K109E
B5: HCV 208A-133 (antibody, V domains shown)
VH: QLQQSGPVLVGPGASVMISCKTSGYTFTENAMHWVEQSHGKSLEWIGGVNPNNGDTIFNQKFKGKATLTVDKSSSTAFMEFRSLTSEESTVYYCVRRELDFFDYWGQGTSVTVSS
VL: B1 VL with I12A, T18R, F34Y, L37M, I40Y, V64A, E83A, F91Y, K109E
B6: HCV 208A-126 (antibody, V domains shown)
VH: B5 VH with G11K, E36K, S75N, M79T, F81L, T85P, E98G
VL: B1 VL with I12A, T18R, F34Y, L37M, I40Y, V64A, E83A, T89A, F91Y, K109E
B7: HCV 208A-222 (antibody, V domains shown)
VH: EVQLQQSGPELEKPGASVRISCKTSGYTFTEYAMHWVKQSHGKSLEWIGGINPNNGNAIYNQIFKDKATLTVDRSSSTAYMGLRSLTFGDSGVYFCVRRQLDYFDYWGQGASLTVSS
VL: B1 VL with L4V, I12A, T18R, F34Y, I40Y, V64A, E83G, F91Y, K109E
B8: HCV 208A-877 (antibody, V domains shown)
VH: QLQQSGPELVKPGASVKISCKTSGYTFTENAMHWVKQSRGKSLEWIGGVNPNNGDTVYTQKFKGKATLTVAKSSSTAYMELRTMTCEESTVYYCASREPDFFDYWGQGSSVTVSS
VL: QIVLTQSPAIMSVSPGEKVSMTCSASSSVTYMHWYQQKSGTSPKRWIYDTSELASGVPARFSGSGSGTTYSLTISSMEAEDAATYYCQQWSNKPLTFGAGTKLELKR
B9: HCV 208A-422 (antibody, V domains shown)
VH: DVQLQESGPGLVNPSQSLSLTCSVTGYSITSGYYWIWIQQSPGNKLEWMGYIKYDGGNNYSPSLKNRISIARDTSKNQCFLKLNSVTIEDTATYYCTRGSDSFDYWGQGTTLTVSS
VL: DIVLTQSPASLAVSLGQRAIISCKASQSVSFAGTNLMHWYQQKPGQQPKLLIYRASNLETGVPTRFSGSGSRTDFTLNIHPVEEDDAATYYCQQSREYYTFGGGTKLEIKR
B10: HCV 208A-442 (antibody, V domains shown)
VH: B9 VH with Q39R, S41F, C79F
VL: B9 VL
B11: HCV 208A-210 (antibody, V domains shown)
VH: QVQLQQSGPELVKPGASMRISCKASGYTFTSYYVHWIKQRPGQGLEWIGCIYPGDVNTDYNEKFKGKATLTADKSSSTAYMQVSTLTSEDSAIYFCVLYYYGSFAYWGQGTLVTVSA
VL: EIVLTQSPAITAASLGQNVTITCRASSSVSYMHWYRQKSGTSPQLWIYEISRRASGVPARFRASGSGTSYSLTISSMEAEDAAIYYCQQWNYPLTFGAGTKLEVKR
B12: HCV 208A-134 (antibody, V domains shown)
VH: QGQMQQSGAELAKPGASVKLSCKTSGFTFSSSYISWLKQKPGQSLEWIAWIYAGTGNTNYNQKFTDKAQLTVDTSSSTAYMQLSSLTTEDSAIYYCAISGTGFTYWGQGTLVTVSA
VL: EVLMTQSPLSLPVSLGDQASISCRSSQSLEHTNGNTYLEWFLQRPGQPPKLLIYKVSSRFSGVPDRFSGSGSGTDFTLKISRVEAEDLGVYYCFQGSHVPFTFGSGTKLAIKR
B13: HCV 208A-352 (antibody, V domains shown)
VH: B12 VH with A12V, Y33F, L83F
VL: DVLMAQTPLSLPVTLGDQASISCRSSQSLVHSNGNTYLEWFLQKPGQSPKLLIYNVSNRFSGVPDRFSGSGSGTDFTLKISRVEAEDLGVYYCFQGSHVPLTFGSGTKLEIKR
B14: HCV 208A-557 (antibody, V domains shown)
VH: B12 VH with A12V
VL: DIALTQSPASLAVSLGQRATISCRASQSVSTSRYSYMHWYQQKPGQPPELLIKYASNLESGVPARFSGSGSGTDFTLNIHPVGEEDTATYYCQHSWDFPFTFGSGTKLEIKR
B15: HCV 208A-207 (antibody, V domains shown)
VH: QGQLQQPGAEFVKPGASLKLSCRASGYTFTSYWIHWVKQRPGQGLEWIGEIDPSDSYINQNQKFRGKATLTVDKSSSTAYMELSGLTSEDSAVYYCARHYYGVLDSWGQGTTLTVSS
VL: DIVLTQSPATLSVTPGDRVSLSCRASQRIYNYLHWYQQKSHESPRLLTKYASQSISGIPSRFSGSGSGTDFILTINSVETEDFGMYFCQQSNSWPLTFGAGTKLELRR
B16: HCV 208A-638 (antibody, V domains shown)
VH: B15 VH with I51V, Q62E, E82Q, S84G, G85S, T112A
VL: QIVLTQSPTIMSASLGERVTMTCTASSSVSSSYLHWFQQKPGSSPKLWIYSTSNLASGVPPRFSGSGSGTSYSLSISSVEAEDVATYYCLQFHRSPWTFGGGAKLEIKR
B17: HCV 208A-159 (antibody, V domains shown)
VH: B5 VH with V8A, L9Q, G11K, E36K, G64D, T67A, F81L
VL: B14 VL with A3V, M37V, E49K, S56A, G83A, T87A, T89A, D97E
B18: HCV 208A-741 (antibody, V domains shown)
VH: B5 VH with G11K, E36K, F81L
VL: B14 VL with A3V, A19T, R24G, Y34F, E49K, G83A, T89A, D97E
B19: HCV 208B-1024 (antibody, V domains shown)
VH: EVQLVESGGDLVKPGGSLKLSCAASGFTFSNYGMSWVRQTPDKRLEWVATISSGGSYSYYPDSVKGRFTISRDNAKNILYLQMSSLKSEDTAMYYCASLYYGYGDYWGQGTAFTVSS
VL: B13 VL with A5T, T14S, L29I, F41Y, P45L, N55R, L101W, S105G

The target in one assay is biotinylated HCV core peptide 134-154 (Peptide 1) (HCV-1). Nature of the assay: EIA, captured mAb.
Molecule B1 had a Reactivity (OD492) of 0.1 OD.
For the molecule B2, the Reactivity (OD492) was 0.08 OD.
Still for that read-out and setting: the figure for B3 is 0.07 OD; for B4 it is 0.22 OD; for B5 it is 0.1 OD.
The same measure, in the same setting: the result for B6 reads 0.2 OD.
The same measure, in the same setting: the result for B7 reads 0.06 OD; that for B8, 0.06 OD.
B9 showed a Reactivity (OD492) of 0.05 OD.
Still for that read-out and setting: the result for B10 reads 0.08 OD; that for B11, 0.06 OD.
Regarding B12, the Reactivity (OD492) turned out to be 2.06 OD.
Same read-out and setting: the figure for B13 is 1.08 OD; for B14 it is 0.05 OD; for B15 it is 1.24 OD.
Same read-out and setting: the figure for B16 is 0.07 OD.
B17 returned a Reactivity (OD492) of 0.15 OD.
Same read-out and setting: the result for B18 reads 1.2 OD; that for B19, 0.08 OD.

The next assay deals with biotinylated HCV core peptide 141-161 (Peptide 2) (HCV-1). The assay can be described thus: EIA, captured mAb.
B1 returned a Reactivity (OD492) of 3.5 OD.
Same read-out and setting: the figure for B2 is 2.42 OD; for B3 it is 2.88 OD.
With B4, the Reactivity (OD492) stood at 3.71 OD.
The same measure, in the same setting: the result for B5 reads 3.68 OD; that for B6, 2.08 OD; that for B7, 2.7 OD.
The same measure, in the same setting: the result for B8 reads 1.21 OD; that for B9, 0.84 OD.
On the same count and under the same terms, the result for B10 reads 3.04 OD; that for B11, 1.15 OD; that for B12, 0.08 OD.
In turn, B13 displayed a Reactivity (OD492) of 0.07 OD.
On to B14, for which the Reactivity (OD492) turned out to be 2.41 OD.
The same measure, in the same setting: the result for B15 reads 0.17 OD; that for B16, 2.96 OD.
On the same count and under the same terms, the result for B17 reads 3.77 OD; that for B18, 3.37 OD; that for B19, 0.75 OD.

In the next assay the target is biotinylated HCV core peptide 151-171 (Peptide 3) (HCV-1). Nature of the assay: EIA, captured mAb.
In the case of B1, the Reactivity (OD492) was determined as 0.12 OD.
Same read-out and setting: the figure for B2 is 0.11 OD.
In turn, B3 gave a Reactivity (OD492) of 0.08 OD.
On the same count and under the same terms, the figure for B4 is 0.16 OD; for B5 it is 0.13 OD; for B6 it is 0.1 OD.
On the same count and under the same terms, the figure for B7 is 0.08 OD; for B8 it is 0.05 OD.
On the same count and under the same terms, the result for B9 reads 0.1 OD.
For the molecule B10, the Reactivity (OD492) came to 0.06 OD.
On the same count and under the same terms, the result for B11 reads 0.05 OD; that for B12, 0.06 OD.
Still for that read-out and setting: the figure for B13 is 0.06 OD; for B14 it is 0.06 OD; for B15 it is 0.08 OD.
Same read-out and setting: the result for B16 reads 0.09 OD; that for B17, 0.19 OD; that for B18, 0.06 OD.
For the molecule B19, the Reactivity (OD492) turned out to be 0.15 OD.
